# According to patent publication US20110028697:
# T1: MazE (E. coli), MazE from Escherichia coli with His-Tag and Myc-Tag at the N-terminal end
# T1 chain: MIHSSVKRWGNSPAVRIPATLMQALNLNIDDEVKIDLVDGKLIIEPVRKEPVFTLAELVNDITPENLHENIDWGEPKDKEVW
# Target: T1, MazE (E. coli), MazE from Escherichia …
protein,measurement,value
"MazF (E. coli), N-terminally His-Tagged MazF from Escherichia coli (protein) MVSRYVPDMGDLIWVDFDPTKGSEQAGHRPAVVLSPFMYNNKTGMCLCVPCTTQSKGYPFEVVLSGQERDGVALADQVKSIAWRARGATKKGTVAPEELQLIKAKINVLIG","degradation of the substrate MazG30 by the ribonuclease activity of MazF (E. coli), gel electrophoresis","When MazE and MazF were added to the substrate MazG30, degradation of the substrate MazG30 was inhibited and the band at the position corresponding to a 14mer polypeptide was decreased"
